Test results: the DeepSol protein solubility set

Experiment: soluble on expression in E. coli; label from the status in PepcDB or PDB records

Sequence | soluble on expression in E. coli
MPEHTKVSAEDQALLNKFARSYQTQTQLKADVKEAKTLIDNINEASDEILLLDDEDSASIPCRIGSCFVHFNGDSLNEHLEGKKTTAEKVLSEKTSELDAISADMEQIKKVLYAKFGDQINLDAEE | soluble
MPELAISTDKVAFLIEKAREFDVKEGESDADSGSNGADDDMVDVLEDTGDDPVVQEISGFIAAMTEEEQIDLVALMRLGRGDGSIEEWDDLRREAAEGRNGRTARYLLGEPLLGDYLADGLDQFGLSWSDERTTPVV | not soluble
MPEQSIEMTPDSSVYKALLESTKAIPWKINWQTMAFEYIGPQIEALLGWPQGSWKSVEDWATRMHPEDQEWVVNFCVKQSECGVDHEADYRALHRDGHYVWIRDVVHVVRDDSGEVEALIGFMFDISERKKTLEHHHHHH | not soluble
MPERIATVGWSNHEVPLALGVTPVGFEKVTWGDDDNNGILPWVEETLSKLGSDEPVLFDATDSIPFEEIANTAPDVILASYSGITQEDYDQLSQIAPVVAYPEIAWGTSLDEMIEMNSKAIGLEQEGKDLIADLDAEVASAIDANPELEHHHHHH | not soluble
MPFKMSSKAQTIKIFNLRSDTNEFIGAGDAYIPPHTGLPANCTDIAPPDIPSSHIAVFDAETQTWNLKEDHRGETVYDTTTGNQMYISEPGPLPENVTSVSPGGGYKKWDSKAKAWVNDEGAEVAARLREAEGTKSRLLQMASGKIAPLQDAVDLGIATDDEKAQLDEWKKYRVLVNRVDTSNPDWPEQPV | not soluble
MPGEFAKFPEQSAGSHQFRNPLDELTGSNTITNLTAHDFDYFTQSEKNSNLYTSENTSNSNRLNLNQNIPVGTLIDGFELINEASGSGFLDDQLVDVSDYSRDRTTKLDRNRNSPELIVALLQRKVQGIRFSSNYGREEEPCVIEIPPGTMVREMADDDWKMSELKEWFTKSRASSHLRDGLAMPMEELDCTPLICAMITRSDVMRINQDQAIHLLAVSVEKRIEVYQNFEWFNFILNLKIGDSVSVEVDETMRRVPAKVSWIGERPEASGIWYNVDFDGNTSQWPSSNQSYSSSHDRLNRQFDTNWNFEMSGSSSVAPSNSRLYYSPNQMHMPMKGGGVSALYDNRRLVQYSGDEEQYRSAPKPAPRERIIPVSRQQPEIEQRNSRSMKPSEPDYNTYSTHPPRPPPSSSMNYPSMSNTHSLQPSRSKSVQTIQRNQFVRQNPAERNERVESDQLNFRIGDQCIWNNNGAEERGIIKYIGFLKGHKTLYAGVEFKNTIGAGTGVFNREQLFLAKDGHAGFVELSSLESPSSSISSTSTSSSQHRRRLSSSRSQQMPAASGTSISVPVNGRHNVNGKQASIESLSDPPPPPYAPPSPPRASSAAAAHQQPPPLPPKPLARVEDFLIDSYDIGSHVVVRHLGAQRTGVVRWLGEEIDDEGDRIVRSAIVQLDEDVPTAWRRSHDASSYTGSPVVGGVLVPIQSLKHNHSGSSSNGASVVQTSTYPTSQTYNNISRRTEDFGSMDSGVEKQKCGIAKDMQQLVGRQKGIQGYCNSCYLDATLYAMFVQTTCFDFLLEKSIKGSETAQQFQKILAHEIVFPLRKVHYVRADHVMKLRKLLAELMPHVTGLTNEEKDPEEILGFIFSKVFHAEPFIKLIGQNHAKDSQYLVPIVVDDWLGGAATSQHLLERHMRSAQVTFAKAPPVLIMQLPRYGQQKVFDKILPLETIDITPFVAGAVPACSKCQACSEVYCPTCFLTRRVFYSEVIFCRKCFHHTHLLPEIEDHKSRDLYPPGKPQKKPHSHKMVLSAVLCIETSHYVAYVRTSSNQWVFFDSMADREGLSDGFNVPVVRECGNMSDWLSLQGWNRLKDADECGQIKVWELNKNISPNDRKLEIAMFGKQSSLDPLVGRLLSDSYICFYEDASPTSSSSSSSTIISSIKNMMN | not soluble
MPGGRRRGFDDQVALQTAMELFWRQGYEGTSITDLTKALGINPPSLYAAFGSKRDLFEKTLDRYMCERTLQLEEAMVRPTAHEAVLDFLTGRVEVFTAPGQPFGCMTVQAGLASGEPHHEIVDLLTAAREQMRQTVLDRFEKALADGDLPAGTDCTALARYVMAAVYGLSVEAASGAPREELTAAAILAAQVVPRAQM | soluble
MPGIAIIGAQWGDEGKGKVVDVLAREADYVIRYQGGANAGHTVVAEGKVFKLNLLPSGVIHPHAVNVLGDGMVIDPFRFQEEVEGLRKEGFDPKILVSERAHLVLPHHKHVESRHNFVGTTGRGIGPAYSDRARRVGIRAGDLLDEATLRERVRRLLAEKPNSTREAGWDTEEKALADLHRMREILSPYIADTGSLLREAWRKGKRLLFEGAQATLLDLNYGTYPYVTSSHPTVGGILVGTGLSHKAITKVYGVAKAYTTRVGEGPFPTELQGELAHHLREKGGEYGTTTGRPRRVGWLDLVALRYACEVNGFDGLVLTKLDVLSGLEKVKVAVEYLDGARPGEASPEAVRYLELPGWGDLSHVKRREDLPANLLRYLELVEEHTGVPVVLFSTSPRREDTFGAVSWV | soluble
MPGWRSICAVMGLTFTGCVFIQGSARAQDGNKATAVLELYTSQGCKSCPPADKNFAKYADDPNVLALSFHVNYWDYMGWRDTLATQDNTDRQNSYRNAFHAKMIYTPQAIINGAVEANGRNGAAINAKIAANKLDVPVSIQQLNDGRLSIDIGAGKKPRDPVHVVLFYFRDSATIPITEGENAGKAITYRNTVSDIDTIGMWDGKPLKIELPASELKRKDVTGCAVVLQETRSDNSLGPMHGAAMFKQKRPVSFLEHHHHHH | not soluble
MPHLFYGTAQNGEVIFDEREAHHMRVVRLKEGDVIEATDGNGFSYTCILKSLKKKTAAAKIVKVEEKEKEPTEKLSVVVPIGRWERTRFLIEKCVELGVDEIFFHKFERSQHEISLDKAKIVVREAAKQCKRYLFPKVSFLEKLEFSGNVITLDLDASQNLLDANLEGSITVVVGPEGGFSEKERELLRSSTTIVSLGKKILRFETAAILTVGYIALKKQKI | not soluble
MPIIYYDGNCVYCYNYAIWLIQHGLSTRYQFAKLQGDVAQNLLENYPEAQQYDSVILQEGDQLKYKSDAITTLITSLTNYKWLGILLRFVPNIIRDFGYQLFADNRNHMWKTHWHEPNDYEKSFFIDLEHHHHHH | not soluble
MPILQPKLMKQLMKFAIFGNTYQPKKSLHALRLFELLKKQGAEICMCREFYQFLTADLKMEVPVDALLEGNDFTADMVISIGGDGTFLKAARRVGRKQIPILGINTGRLGFLADVSPEEMEVTFEEIQAGRYSVEERSVLQLICNDRNLQESPYALNEIAVLKRDSSSMISIRTAINGAYLNTYQADGLVIATPTGSTAYSLSVGGPIIVPHSNTIAITPVAPHSLNVRPIVIRDDWEITLDVESRSHNFLVAIDGSSETCKETTQLTIRRADYSIKVVKRFNHIFFDTLRSKMMWGADGRRLEHHHHHH | soluble
MPINFHDANNKYTYAQRNAHISWGEMIKGITNIQNKQIIDIGCGGGIYTKELALMGAKSVVGLDFSKEILQAAKENCSGFSNISFIHGDAHSTPYPNDTFDIVISRAVIHHLQDIPTFLREASRILKKNGVLIVQDRTIEDCTIPGSPEHIRGYFFSIFPKLIEIESKRRPKTTTIQKELQKYFLHVFPTQTQWEVRKIHDSVEALLQDLSPRTGRSILYELTDYELSQLLQQVQTALQNVSPIIERDRWTIWSAMKL | not soluble
MPIVYYDGNCIYCYNYVIWLIQHDLPRNYQFATLKGEVGQQFFKQHPEAANKNSVILQKGDRIYFESQAIIKLITALPNRTKLLGVGLWLVPKPVRNFGYRMFANNRNRMWKTTWHQPNDYEKSFFLDDNAKVKLTD | not soluble
MPKIQNIVTVSSQEYRDAMSHFAGAVHIVTTNGIKGKRGVTISACCSLSDDPPTLLVCLMRHNLKNHLFIENGNFCVNSLAGKHRSLADIFSRRYNYTETECFDRAQWGTLQTGAPSLSDALASFDCRLICWHEHATHYILIGEVIAINRNQEKDALIYLNRGYHTLPL | not soluble
MPKQKASYEALLEEVVETLKHSPDGVNEIVESSAKYVDAANDLTKDELALISAYVKADLKEFSQSFEQSKSSPFYLMITNSIWQGLLDITDRTKVEWVELFADLEHQGLYQAGDMIGLGVLICDQCGHKTEFNHPTEIEPCSQCGGKAFSRQPLKP | not soluble
